Laboratory results: the RNAGym collection of RNA variant scans (doi:10.1073/pnas.2313332121)
Variants at the floor of the assay were thinned out.

B1: TPR 5TU (parent)
chain: GGAUCUUCUCGAUCUAACAAAAAAGACAAAUCUGCCACAAAGCUUGAGAGCAUCUUCGGAUGCAGAGGCGGCAGCCUUCGGUGGCGCGAUAGCGCCAACGUUCUCAACUAUGACACGCAAAACGCGUGCUCCGUUGAAUGGAGUUUAUCAUG

Variants of: B1
Assay: polymerase ribozyme fitness, log enrichment relative to wild type (log ratio); higher = more active; in vitro selection for triplet polymerase activity
Outline: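 In triplicate, a single round of in vitro selection was run on each mutant library, PCR-built and transcribed, covering one subunit of a heterodimeric triplet polymerase ribozyme. Frozen incubation at −7 °C followed annealing with a biotinylated primer, partner subunit and triplets, and extended constructs were then gel-excised, streptavidin-captured and taken through RT-PCR. Fitness is the logarithm of genotype enrichment over wild-type enrichment, from inverse-variance-weighted replicate averages of Illumina-sequenced inputs and outputs. […] only genotypes with ≥10 input reads and ≥1 read per output were kept.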

Variant | polymerase ribozyme fitness (log ratio)
GGAUCUUCUCGAUCUAACAAAAAAGACAAAUCUGCCACAAAGCUUCAGAGCAUCGUCUGAUGCAGAGGCGGCAGCCUUCGGUGGCGCGAUAGCGCCAACGUUCUCAACUAUGACACGCAAAACGCGUGCUCCGUUGAAUGGAGUUUAUCAUG [G46C U55G G58U] | -0.983
GGAUCUUCUCGAUCUAACAAAAAAGACAAAUCUGCCACAAAGCUUCAGAGCAUCUUCGGAUGCAGAGACGGCAGCCUUCGGUGGCGCGAUAGCGCCAACGGUCUCAACUAUGACACUCAAAACGCGUGCUCCGUUGAAUGGAGUUUAUCAUG [G46C G68A U101G G117U] | ≤ -4.2
GGAUCUUCUCGAUCUAACAAAAAAGACAAAUCUGCCACAAAGCUUCAGAGCAUCUUCGAAUGCAGAGGCGGCAGCCUUCGGAGGGGCGAUAGCGCCAACGUUCUCAACUCUGUCACGCAAAACGCUUACUCCGUUGAAUGGAGUUUAUCAUG [G46C G59A U82A C85G A110C A113U G126U G128A] | ≤ -4.2
GGAUCUUCUCGAUCUAACAAAAAAGACAAAUCUGCCACAAAGCUUUAGAGCAUCUUCGGAUGCAGAGGCGGCAGCCUUCGGUGGCGCGAUAGUGCCAACGUUCUCAACUAUGACACGCAAAACGCGUGCUCCGUUGAAUGGAGUUUAUCAUG [G46U C93U] | -0.878
GGAUCUUCUCGAUCUAACAAAAAAGACAAAUCUGCCACAAAGCUUCAGAGCAUCUUCGGAUGCAGAGGCGGCAGCCUUCGGUGGCGCGAUAGCGCCAACGUUCUCAACUAUGAUACGCAAAACGCGUGCUCCGUUGAAUGGAGUUUAUCAUG [G46C C114U] | -3.67
GGAUCUUCUCGAUCUAACAAAAAAGACAAAUCUGCCACAAAGCUUCAGAGCAUCUUCGGAUGCAGAGGCGGCAGCCUUCGGUGGCGCGAUAGCGCCAAGGGUCUGAACUAUGACACGCAAAACACGUGCUCCGUUGAAUGGAGUUUAUCAUG [G46C C99G U101G C105G G124A] | -2.54
GGAUCUUCUCGAUCUAACAAAAAAGACAAAUCUGCCACAAAGCUUUAGAGCGUCUUCGGAUGCAGAGGCGGCAGCCUUCGGUGGCGCGAUAGGGCCAACGUUCUCAACUAUGACACGCAAAACGCGUGCUCCGUUGAAUGGAGUUUAUCAUG [G46U A52G C93G] | -4.03
GGAUCUUCUCGAUCUAACAAAAAAGACAAAUCUGCCACAAAGCUUCAGAGCAUCUUCGGAUGCAGAGGCGGCAGCCUUCGGUGGCGCGAUAGCGCCAACGUUCUCAACUAUGACACGCAAAACGCGUGCUCCGUUAAAUGGAGUUUAUCAUG [G46C G136A] | -0.148
GGAUCUUCUCGAUCUAACAAAAAAGACAAAUCUGCCACAAAGCUUCAGAGCAUCUUCGGAGGCAGAGGCGGCAGCCUUCGCUGGCGCGAUAGCGCCAACGUUCUCAACUAUGAUAGGCAAAACGCGUGCUCCGUUGAAUGGAGUUUGUCAUG [G46C U61G G81C C114U C116G A147G] | ≤ -4.2
GGAUCUUCUCGAUCUAACAAAAAAGACAAAUCUGCCACAAAGCUUUAGAGCAUUUUCGGAUGCAGAGGCGGCUGCCUUCGGUGGCGCGAUAGCGCCAACGUUCUCAACUAUGACACGCAAAACGCGUGCUCCGUUGAAUGGAGUUUAUCAUG [G46U C54U A73U] | -3.31
GGAUCUUCUCGAUCUAACAAAAAAGACAAAUCUGCCACAAAGCUUCAGAGCAUCUUCGGAUGCAGAGGCGGCAGCCUUCGGUGGCGCGAUAGCGCCAACGUUCUCAACGAUGACACGCAAAACGCGUGCUCCGUUGAAUGGAGUUUAUCAUG [G46C U109G] | -1.81
GGAUCUUCUCGAUCUAACAAAAAAGACAAAUCUGCCACAAAGCUUCAGAGCAUCUUCGGAUGCAGAGGCGGCAGCCUUCGGUGGCGCGAUAGCGCAAACGUUCUCAACUAUGACACGCAAAAGGCGUGCUCCGUUGAAUGGAGUUUAUCAUG [G46C C96A C123G] | -1.48
GGAUCUUCUCGAUCUAACAAAAAAGACAAAUCUGCCACAAAGCUUCAGAGCAUCUUCGGAUGCAGAGGCGGCAGCCUUCGGUGGCGCGAUAGCGCUAUCGUUCUCGACUAUGACACGCAAAACGCGUGCUCCGUUGAAUGGAGUUUAUCAUG [G46C C96U A98U A106G] | -0.573
GGAUCUUCUCGAUCUAACAAAAAAGACAAAUCUGCCACAAAGCUUUAGAGCAUCUUCGGAUGCAGAGGCGGCAGCCUUCGGUGGCGCGAUAGCGCCAAAGUUCUCAACUAUGACACGCAAAACGCGUGCUCCGUUGAAUGGAGUUUAUCAUG [G46U C99A] | -3.99
GGAUCUUCUCGAUCUAACAAAAAAGACAAAUCUGCCACAAAGCUUCAGAGCAUCUACGGAUGCAGAGGCGGCAGCCUUCGGUGACGCGAUAGCGCCAACGUUCUCAACUAUGACACGCAAAACGCGUGCUCCCUUGAAUGGAGUUUAUCAUG [G46C U56A G84A G133C] | -2.71
GGAUCUUCUCGAUCUAACAAAAAAGACAAAUCUGCCACAAAGCUUCAGAUCCUCUUCGGUUGCAGAGGCGGCAGCCUUCCGUGGCGCGAUAGCGUCAACGUUCUCAACUAUGACACGCAAAACGCGUGCUCCGUUGAAUGGAGUUUAUCGUG [G46C G50U A52C A60U G80C C95U A150G] | ≤ -4.2
GGAUCUUCUCGAUCUAACAAAAAAGACAAAUCUGCCACAAAGCUUUAGAGCAUCUUCGGAUGCAGAGGCGGCAGCCUUCGGUGGCGAAAUAGCGCCAACGUUCUCAACUAUGACACGCAAAACGCGUGCUCCGUUGAAUGGAUUUUAACAUG [G46U C87A G88A G143U U148A] | ≤ -4.2
GGAUCUUCUCGAUCUAACAAAAAAGACAAAUCUGCCACAAAGCUUUAGAGCAUCUUCGGAUGCAGAGGCGGCAGCCUUCGGUGGCGCGAUAGCGCCAACGUUGUCAACUAUGACACGCAAAACACGUGCUCCGUUGAAUGGAGUUUAUCAGG [G46U C103G G124A U151G] | ≤ -4.2
GGAUCUUCUCGAUCUAACAAAAAAGACAAAUCUGCCACAAAGCUUUAGAGGAUUUUCGGAUGCAGAGGCGGCAGCCUUCGGUGGCGCGAUAGCGCCAACGUUCUCAACUAUGACACGCAAAACGCGUGCUCCGUUGAAUGGAGUUUAUCAUG [G46U C51G C54U] | ≤ -4.2

Variant | polymerase ribozyme fitness (log ratio)
GGAUCUUCUCGAUCUAACAAAAAAGACAAAUCUGCCACAAAGCUUCAGAGCAUCUUCGGAUGCAGAGGCGGCAGCCUUCGGUGGCGCGAUAGCGCCAACGUCCUCAACUAUGACACGCAAAACGCGUGCUCCGUUUAAUGGAGUUUAUCAUG [G46C U102C G136U] | ≤ -4.2
GGAUCUUCUCGAUCUAACAAAAAAGACAAAUCUGCCACAAAGCUUUAGAGCAUCUUCGACUGCAGAGGCGGCAGCCUUCGGUGGCGCGAUAGCGCCAACGUUCUCAACUAUGACACGCAAAACGCGUGCUCCGUUGAAUGGAGUUUAUCAUG [G46U G59A A60C] | -2.54
GGAUCUUCUCGAUCUAACAAAAAAGACAAAUCUGCCACAAAGCUUUAGAGCAUCUUCGGAUGCAGAGGCGGCAGCCUUCGGUGGCGCGAUAGCGCCAACGUUCUCAACUAUGACACGCAUAACGCGUGCUCCGUUGAAUGGAGUUUAUCAUG [G46U A120U] | -0.29
GGAUCUUCUCGAUCUAACAAAAAAGACAAAUCUGCCACAAAGCUUCAGAGCAUCUUCGGAUGCAGAGGCAGCAGGCUUCGGUGGCGCGAUAGCGCCAACGUUCUCAACUAUGACACGCCAAACGCGUGCUCCGUUGAAUGGAGUUUAUCAUG [G46C G70A C75G A119C] | ≤ -4.2
GGAUCUUCUCGAUCUAACAAAAAAGACAAAUCUGCCACAAAGCUUCAGAGCAUCUUCGGAUGCAGAGGCGGCAGCCUUCGGUGGCGCGAUAGCGCCAACGUUCUGAACUAUGACACGCAAAACGCGUGCUCCGUUGAAUGGAGUUUAUCAUG [G46C C105G] | 1.29
GGAUCUUCUCGAUCUAACAAAAAAGACAAAUCUGCCACAAAGCUUCAGAGCAUCUUCGCAUGCAGAGGCGGCAGCCUUCGGUGGCGCAAUAGCGCCAACGUUCUCAACUAUGACACGCAAAACGCGUGCUCCGUUGAAUGGAGUUUAUCAUG [G46C G59C G88A] | ≤ -4.2
GGAUCUUCUCGAUCUAACAAAAAAGACAAAUCUGCCACAAAGCUUUAGAGCCUCUUCGGAUGCAGAGGCGGCAGCCUUCGGUGGCGCGUUAGCACCAACGUUCUCAACUAUGACACGCAAAACGCGUGCUCCCUUGAAUGGAGUUUAUCAUG [G46U A52C A89U G94A G133C] | ≤ -4.2
GGAUCUUCUCGAUCUAACAAAAAAGACAAAUCUGCCACAAAGCUUUAGAGCAUCUUCGGAUGCAGAGGCGGAAGCCUUCGGUGGCGCGAGAGCGCCGACAUUCACAGCUAUGACACGCAAAACCCGUGCUCCGUUGAAUGGAGUUUAUCAUG [G46U C72A U90G A97G G100A U104A A107G G124C] | ≤ -4.2
GGAUCUUCUCGAUCUAACAAAAAAGACAAAUCUGCCACAAAGCUUCAGAGCAUCUUCGGAGGCAGAGGCGGCAGCCUACGGUGGCGCGAUAGAGCCAACGUUCUCAACUAUGACACGCAAAACGCGUGCUCCGUUGAAUGGAGUUUAUCAUG [G46C U61G U78A C93A] | ≤ -4.2
GGAUCUUCUCGAUCUAACAAAAAAGACAAAUCUGCCACAAAGCUUCAGAGCAUCUUCGGAUGCAGAGGCGGCAGCCUUCGGUGGCGCGAUAGCGCCAACGUUCUCAACUAUGACACGCAAAACGCGUGCUCCGUUGAAUGGAGCUUAUCAUG [G46C U144C] | -1.66
GGAUCUUCUCGAUCUAACAAAAAAGACAAAUCUGCCACAAAGCUUCAGAGCAUCUUCGGAUGCAGAGGCGGCAGCCUUCGGUGGCGUGAUAGCGCCAGCGUUCUCAACUAUGACACUCAAAACGCGUGCUCCGUUGAAUGGUGUUUAUCAUG [G46C C87U A98G G117U A142U] | ≤ -4.2
GGAUCUUCUCGAUCUAACAAAAAAGACAAAUCUGCCACAAAGCUUUAGAGCAUCUUGGGAUGCAGAGGCCGCAGCCUGCGGUGGCGUUAUAGCGCCAACGUUCUCAACUAUGACACGCAAAACGCGUGCUCCGUUGAAUGGAAAUUAUCAUG [G46U C57G G70C U78G C87U G88U G143A U144A] | ≤ -4.2
GGAUCUUCUCGAUCUAACAAAAAAGACAAAUCUGCCACAAAGCUUCAGAGCAUCUUCCGAUGCAGAGGCGGCAGCCUUCGGUCGCGCGAUAGCGCCAACGUUCUCAACUAUGACACGCAAAACGAGUGCUCCGUUGAAUGGAGUUUAUCAUG [G46C G58C G83C C125A] | -4.17
GGAUCUUCUCGAUCUAACAAAAAAGACAAAUCUGCCACAAAGCUUUAGAGCAUCUUCGGAUGCAGAGGCGGCAGCCUUCGGUGGGGCGAUAGCGCCAACGUUCUCAACUAUGACACGCAAAACGCGUGCUCCGUUGAAUGGAGUUUAUCAUG [G46U C85G] | -1.84
GGAUCUUCUCGAUCUAACAAAAAAGACAAAUCUGCCACAAAGCUUUAGAGCAUCUUCGGAUGCAGAGGGGGCAGCCUUCGGUGGCGCGAUAGCGCCAACGUUCUCAACUAUGACACGCAAAACGCGUGCUCCGUUGAAUGGAGUUUAUCAUG [G46U C69G] | -0.758
GGAUCUUCUCGAUCUAACAAAAAAGACAAAUCUGCCACAAAGCUUUAGAGCAUCUUCGGAUGCAGAGGCGGCAGCCUUCGGUGGUGCGAUCGCGCCAACGUUCUCAACUAUGACACGCAAAACGCGUGCUCCGUUGAAUGGAGUUUAUCAUG [G46U C85U A91C] | ≤ -4.2
GGAUCUUCUCGAUCUAACAAAAAAGACAAAUCUGCCACAAAGCUUCAGACCAUCUUCGGAUGCAGAGGCGGCAGCCUUCGGUGGCGCGGUAGCGCCAACGUUCUCACCUAUGACACGCAAAACGCGUGCUCCGUUGAAUGGAGUUUAUCAUC [G46C G50C A89G A107C G152C] | ≤ -4.2
GGAUCUUCUCGAUCUAACAAAAAAGACAAAUCUGCCACAAAGCUUCAGAGCAUCUUCGGAUGCAGAGGCGGCAGCCUUCGGUGGCACGAUAGCGCCAACGUUCUCAACUAUGACACGCAAAACGCGUGCUCCGUUGAAUGGAGUUUAUCAUG [G46C G86A] | -1.59
GGAUCUUCUCGAUCUAACAAAAAAGACAAAUCUGCCACAAAGCUUCAGAUCAUCUUCGGAUGCAGAGACGGCAGCAUUCGGUGGUGCGAUAGCGCCAACGUUCUCAACUAUGACACGCAAAACGCGUGCGCCGUUGAAUGGAGUUUAUCAUG [G46C G50U G68A C76A C85U U130G] | ≤ -4.2
